Assay: soluble on expression in E. coli; label from the status in PepcDB or PDB records

Question: For “MANFIEKITYLGTPAIKAGNEHLEMIVVPEWGSNVISLVDKTTNVQLLREPETAESFHDTPTLYGIPILFPPNRISDGTFSFRGRTYHFDINEKDKHNHLHGFLYHEKWNVVTTKQTDEGVIVETEIDLSELPHVQKQFPHHAVVRMTYTIKENTLFKHATVMNKGKEAFPWGIGYHTTFIFPAESSLFSLTADQQWELDERLLPTGKLMDVPYKEALHEGMDLRHKQLDDVFLSSYQKRGGENQAVIYHQHAHISIIYKADEQFKHWVVYNADGKQGYLCPEPYTWVTNAVNLDLPSSLTGLQVLEPGEETTAKSSITIELNHQLEHHHHHH”, which “soluble on expression in E. coli” value is on record?
Answer: Its value is “soluble”.

Question: With “MSLELIPCGWRRYVEFRMTIVNHISPIHSVDKKGWRWFDENTKNWGFKDMIPAVILNNVNVGFLLNGEITIIAEVEVHEFIDTLNASQVEELSDDSSEDLQNKDNVTIEVNGFQVLDSQVDQVNAIFEKHPDLISNFSLKNQHIRNAYMHALLDLTKTLSKSTKELTVEDMNEADNTITDLIKAGLNLDWLRQKFDQALEKQIAYDTRIGELEKQVKKRKLAVTELEADLEKEKAAASASLMLFDEGHHHHHH” as the sequence, how does the “soluble on expression in E. coli” value read?
Answer: Its value is “not soluble”.

Question: Which “soluble on expression in E. coli” value does the source give for “MSLIIRKLFEFENAHIVRFCSSKRCKSSIHGHSYKVEVLLESKYLDNAGMVYDFGLLKTYIRQIIDSFDHAITLFKYDDAKYLEEMKKYSSRWICLPVNVSAENFCRVFFILIDALLKQTKMVNGEQGVTLQSIIVHETRTGYAQGFREDAEGHHHHHH” here?
Answer: Its value is “not soluble”.

Question: For “MSLPHLSLADARNLHLAAQGLLNKPRRRASLEDIPATISRMSLLQIDTINIVARSPYLVLFSRLGNYPAQWLDESLARGELMEYWAHEACFMPRSDFRLIRHRMLAPEKMGWKYKDAWMQEHEAEIAQLIQHIHDKGPVRSADFEHPRKGASGWWEWKPHKRHLEGLFTAGKVMVIERRNFQRVYDLTHRVMPDWDDERDLVSQTEAEIIMLDNSARSLGIFREQWLADYYRLKRPALAAWREARAEQQQIIAVHVEKLGNLWLHADLLPLLERALAGKLTATHSAVLSPFDPVVWDRKRAEQLFDFSYRLECYTPAPKRQYGYFVLPLLHRGQLVGRMDAKMHRQTGILEVISLWLQEGIKPTTMLQKGLRQAITDFASWQQATRVTLGRCPQGLFTDCRTGWEIDPVA”, which “soluble on expression in E. coli” value is on record?
Answer: Its value is “not soluble”.

Question: With “MSLIKLRPHHIMCFQGYEGKGYSQDFIDNMDNIYRDLKEKDNLKIKIVFSTDDVCGSCPNKISDNNCGCNEKVMAIDNKVIRVLKLKQKIYTYNELVNKLRLNINEGVMKDICGQCVWYENSKCKTSILSLEGHHHHHH” as the sequence, how does the “soluble on expression in E. coli” value read?
Answer: Its value is “soluble”.

Question: Which “soluble on expression in E. coli” value does the source give for “AGQKVMITKMITDSVANPQMKQAFEQRLAKASTEDALNDIKRDIIRSAI” here?
Answer: The value was “soluble”.

Question: With “MVALRGKDATSFLARPDPGRPIVLLYGPDAGLVRERADALIAASLDDPKDPFALVRLDGDELSAEPSRLVDEALAIPMFGGRRAIRVRAGSRSFVAGVEALIASPPRECRIVIEAGDIKPDNALRKACEKAATGAVAIGCYPDAEADIARLIDDELRGSNLQIAKDARAVLTTLLGGDRQASRNELRKLALYAHGKGEVTLDDVITCVSDASDLKLDAIVDAAFSGKPVVVETEFAKAMVAGTYPGQIILAAQRHAAFLHKTSLVVEGGTPAAVVLDSGFPRLHFSRKAAAETALRNLSTTRLAQIIEQLASAALETRRQATLGAAIAQRTLLSIAVSARRRSLEHHHHHH” as the sequence, how does the “soluble on expression in E. coli” value read?
Answer: The value was “soluble”.

Question: With “MITVVGGTFSKLHKGHKALLNTAIDTGNEVVIGLTSDEYVKKNKVYPAIPYSVRYRTLYNYMIKRTNKFRIRQIDDRNGNAPYEKDYEVIVVSPETYPRSLKINEIRISNGLPPLKIIRVPYVLAQDLFPISSTRIINGEID” as the sequence, how does the “soluble on expression in E. coli” value read?
Answer: Its value is “not soluble”.

Question: For “MGSDKIHHHHHHMKLVFRWYGEKHDTVTLEQIRQIPGVEGVVGALFDIPVGEVWPFEEIMKLKETVEKAGLKLEVIESVNVHEDIKLGLPTRDRYIENYKKTIRNLAKAGVKVVCYNFMPVFDWMRTDLHKKLPDGSETMEYDHRLIEGVTPDELIKRVKEGSQGFVLPGWEWDRLEKLRETFELYKNVDEEKLFENLVYFLERVIPVCEECDVKLAIHPDDPPWSIFGLPRIITNKENIERMLKAVDSPYNGITFCMGSLGANPENNIPEMIRYFGKMGRIHFAHVRNLKFTGEKSFYETAHPSFCGSHDLFEVMKAFHDIGYEGYIRPDHGRLIWGEKARPGYGLYDRALGATYILGLWEAIDKMKKRYC”, which “soluble on expression in E. coli” value is on record?
Answer: Its value is “not soluble”.

Question: For “MSPRRSAAEAQATRGRILGRAAEIASEEGLDGITIGRLAEELEMSKSGVHKHFGTKETLQISTLDKAFVDFWHRVVEPALAEPPGLRRLRAVCANSVGYLEEPLLPGGCLLTAALSEYDGRPGRVRDAVAEVWSRWREQLRADLTAAVDKGELPAGFDVEQALFEIVAAGLALNAAMQLQHDRTAADRARRAIERALAQS”, which “soluble on expression in E. coli” value is on record?
Answer: The value was “soluble”.

Question: With “MKWNLDPSHTSIDFKVRHMGIASVRGSLKVLSGSVETDEAGRPIQVEAVIDAASIATGEPQRDGHLRSADFLHAEQYPEIRFVSTQIEPLGGNRYRIQGNLTIRDITKPVTLEAEVSAPIKDPWGMQRVAASASGQINRKDWNLTWNQVLELGALLVGEEVKFNLEVEAVAPAPVAAQ” as the sequence, how does the “soluble on expression in E. coli” value read?
Answer: The value was “soluble”.

Question: For “MGSDKIHHHHHHMGTRLDILMIHSNLPLLNMLWAHITDELERLDKMLNRFDATSEVSKLNSHTQQDSVSVSAELEDILRSCQYYYEKTLHLFDITLNDFSQIQIHGNHHISFSNFSVTLDFGGFAKGYALKKIQEILLRGNIENAFVDFGNSSIMGIGHHPYGDCWKVSLQNPYTQQTLDEFCLTDNTLSTSGNTEQYTGHIINPLTGIYNEQKKVTSILSDNPLDAEILSTVWMIADDQQREQINENFKHIKGTIYTL”, which “soluble on expression in E. coli” value is on record?
Answer: The value was “not soluble”.

Question: Which “soluble on expression in E. coli” value does the source give for “MSLVGDVYLGVGSASSEYWAAYIEGAKAVASSLGKDVNVIPSEFDGQKLLEQFGAVFAAGCEDCVVTVDPASNAFTKAMIERADTAGAKYVNLWNRPDEIHPWDTVPNTWIANISFDGVDSGYQNGMALCNALGGKGNIVALNGIPDNPPAKQRIAGLHKALQECPGLKLLDTQVGNWDQTQGQSITRAWLAKYGDELNGIFSANDGMALGAVAALREKGLVGKILVTGSDGSSDVIKLIEKGEMLSTMHIDGYVQGAYAVALAAAAVKGDIKMDELKQDQRDFFLSQTLVTKDNAASVLNSKKDASQFSYDALKGNFWAASVGQIPAGANEGHHHHHH” here?
Answer: Its value is “soluble”.

Question: For “MSQSDEASVAEPTVVVATPVAVAVTAPATHPRKPPALVISTIACPTIYEQAPSKPASPTMPLSPYEGITADLMQRIQLFSSQFDHARLSPNYATSDLGSSARSSFSSTTSSFLTYRDRSVDFDEAGKELISPFDCDTNCSGTPYSLSTNSGNHFSFEARSVSSLGHSTAHFNQLLAAGAAYELSRERSRSESDMQPTQEDDVRHLNTSTISVPIYAKKPLHKFGGEIKRSSSTPPPTSDEREQVEQRLLLRPSSGMEIKKDLETTNSFVSSWAREQIFAMQNATMYNLLTARSAEDCSTISTPGPLKVFPRSKDDMTFAPRDDSSRAKQMQYPCTLCGQAFAVHDRLAKHIASRHRQRSCTLDDASKVHKCNMCSKSFSRSDMLTRHMRLHTGAKPYSCPTCNQVFSRSDHLSTHLRTHTGEKPYACPMCNYSASRRDMISRHMRTHSLTDDSSISTPISQLSIRSATTSPLPPKIGSTATVEIGSGLLSAFKPILSASSSNLLSVSSPFQSLSLSTPPSPSFAPIVLNRQLSFDVTMRNTTS”, which “soluble on expression in E. coli” value is on record?
Answer: The value was “soluble”.

Question: Which “soluble on expression in E. coli” value does the source give for “NNMFSRQAPHFAVTDYDGTLQLLEDGLVLQHDGNHPLALYDYLNDKELRTNLIKTQAARADSMTCRIEAVIQSFNHRMNTNRLVADK” here?
Answer: Its value is “not soluble”.

Question: With “MKYLPQQDPQVFAAIEQERKRQHAKIELIASENFVSRAVMEAQGSVLTNKYAQGYPGRRYYGGCEYVDIVEELARERAKQLFGAEHANVQPHSGAQANMAVYFTVLEHGDTVLGMNLSHGGHLTHGSPVNFSGVQYNFVAYGVDPETHVIDYDDVREKARLHRPKLIVAAASAYPRIIDFAKFREIADEVGAYLMVDMAHIAGLVAAGLHPNPVPYAHFVTTTTHKTLRGPRGGMILCQEQFAKQIDKAIFPGIQGGPLMHVIAAKAVAFGEALQDDFKAYAKRVVDNAKRLASALQNEGFTLVSGGTDNHLLLVDLRPQQLTGKTAEKVLDEVGITVNKNTIPYDPESPFVTSGIRIGTAAVTTRGFGLEEMDEIAAIIGLVLKNVGSEQALEEARQRVAALTDGG” as the sequence, how does the “soluble on expression in E. coli” value read?
Answer: Its value is “soluble”.

Question: For “MSLEKHKVDFYNIPIVDYLLSIGEPLESVGHNYYQHKHHDSLKINQRKNYFVWNSRSSEKNSRGGVVQYMQIMHNLSLQETLSKLSEDLDGKVLPAIPKKSYPKKFNYKVKEAIVPLETQRYLVAKRKIPNKIVRLFFSYDLISQNENNEVIFKWFKGDKVMGFSKQGTIPLTDEEKEKYHTKRDFFKYVAPTTEADTMWGFNYLSGEPKHIFFFESEIDLMSYYSIFEEELNETGNFWLISINGVAIEKVYSFFRYGIENLNLKETCQSLHVCFDNDIAGKQACNKLQHLEFKNIPFQNDLPKEFKDWNEVLQNKEGHHHHHH”, which “soluble on expression in E. coli” value is on record?
Answer: The value was “soluble”.

Question: Which “soluble on expression in E. coli” value does the source give for “MSPDEDLRLLYLRLIPQLAENRPEFQQAIADSPLFTAYMKLLKRQAELSPRILSALLSAISSIVRSHLPAYLKFQAKNGLTATEKLIQSTKDHKNAVKAGRMIVSFLYTLTDLQGIDEITEEIKNSILKIYTLLDGRSRFVDRADDSEETKEFYEETMKMIKFEIMQMHPDIITPQTRKLLEEHFKESNLRAGLMPIGGWPVIPKNEWPQPPQPPCHKANKNAEPKKEPEPAKKVAPKQETKVDQEAAELARKIQIEEDKTRKRHEIVARFSILDIYTKEELAEKLKLDAEMEMAEAQKVLKEIR” here?
Answer: Its value is “not soluble”.

Question: Which “soluble on expression in E. coli” value does the source give for “MSLSIPDRRAKLDRAHGVLSIRRQCRLLGLSRSSVYRTPLPANDDDLALMRRIDELFTARPFLGSRRMAWLISEDGVRINRKRVQRLMRKMGIEALGPKPRTSKPAPGHRIYPYLLRAMTIDRPNQVWATDITYIPMGRGFLYLVAVIDWASRAVLSWRLSNTMDVSFCVDALEEALSRFGKPQIFNTDQGSQFTSAAFTSVLEAAGIQISMDGRGRWMDNVFIERLWRSLKHEDVYLKFNEGHHHHHH” here?
Answer: Its value is “not soluble”.

Question: Which “soluble on expression in E. coli” value does the source give for “MIDWPLAELLPHAGDMILIDQVLAFDEEQIRTRLEVRPGGLFNRPDGSLPAWVGVELMAQSVAAYAGCRARQQGLPVELGFLLGTRKFECNVEHFPLGSTLEIHALRSLEDDNGMGVFECHLSGPGITASARLNVFRPPQAADYLHETPLEHHHHHH” here?
Answer: Its value is “not soluble”.

Question: With “GSPEFMELEIRPLFLVPDTNGFIDHLASLARLLESRKYILVVPLIVINELDGLAKGQETDHRAGGYARVVQEKARKSIEFLEQRFESRDSCLRALTSRGNELESIAFRSEDITGQLGNNDDLILSCCLHYCKDKAKDFMPASKEEPIRLLREVVLLTDDRNLRVKALTRNVPVRDIPAFLTWAQVG” as the sequence, how does the “soluble on expression in E. coli” value read?
Answer: The value was “soluble”.

Question: For “MSDEKKSTDIDLKNLKAGGFIKERGKDLFTVRLRVPGGRMPVARLKKIAEVAEKYGQGMVHLSVRQSVELININFRDFDAVVAELGEGTQKVASCGARVRVPTACGGCEYNPNGLVDTQKSALEVDEKLFGTSTGHHKFKVGFAGCPFDCPKSATNDVGFQGAIWPVLYADECIGCGLCDKSCTEDAIVMGDDGKPRFIPENCLYCGDCLKVCPSEAWRAEKKGYTVRIGGKWGRRPLVGTLFAEFLPEEQVFDFIAAVLDWYKEKAEGQGRIRLGDVIRAEGPDALLGYLRERFPAAVVDATIPPQRIATQIGKEKRVPLEHHHHHH”, which “soluble on expression in E. coli” value is on record?
Answer: The value was “soluble”.

Question: For “MLSETELRALKKLSTTTSRVVGDSTLALPSNVKLSKGEVEKIAVTKKEMFDELAQCNLPTIELITREHTFNGDVIRFAAWLFLMNGQKLMIANNVAVRMGMQYATNLAGNNVKITYVTSNNVVKLGHIAAGVLANPYSNKGSGLFITYEHNLISNQIETGKVCVLFITSLSTTASSTNSFAYSACSVPIEDWDFNMIKLTAETSCASLTAMTNLVNSLVPGERTRPVGLYVDIPGVTVTTSASSGSLPLTTIPAVTPLIFSAYTKQVEEVGVINTLYALSYLP”, which “soluble on expression in E. coli” value is on record?
Answer: Its value is “soluble”.
